The record followed here is IntAct's records for PubMed 31515488.

Sequences and labels used below:
B1: Cysteine-rich C-terminal protein 1 (Homo sapiens), Q9UGL9 (parent)
chain: MSSQQSAVSAKGFSKGSSQGPAPCPAPAPTPAPASSSSCCGSGRGCCGDSGCCGSSSTSCCCFPRRRRRQRSSGCCCCGGGSQRSQRSNNRSSGCCSGC
partner: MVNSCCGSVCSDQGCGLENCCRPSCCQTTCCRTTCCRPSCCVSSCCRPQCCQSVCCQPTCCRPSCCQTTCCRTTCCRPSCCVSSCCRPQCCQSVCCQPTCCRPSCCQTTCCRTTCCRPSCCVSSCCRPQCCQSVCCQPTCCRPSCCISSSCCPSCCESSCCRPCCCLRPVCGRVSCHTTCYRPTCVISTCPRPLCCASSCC
B2: Coiled-coil domain-containing protein 33 (Homo sapiens), Q8N5R6-5 (parent)
chain: MGEPGPPSPPAPKAAPGLIDSFSEMNNYRRAMQKMAEDILSLRRQASILEGENRILRSRLAQQEEEEGQGKASEAQNTVSMKQKLLLSELDMKKLRDRVQHLQNELIRKNDREKELLLLYQAQQPQAALLKQYQGKLQKMKALEETVRHQEKVIEKMERVLEDRLQDRSKPPPLNRQQGKPYTGFPMLSASGLPLGSMGENLPVELYSVLLAENAKLRTELDKNRHQQAPIILQQQALPVDPGELGAGGDLTERLQETHGPGHSECTETLPAQDLLSGTSDKFNLLAKLEHAQSRILSLESQLEDSARRWGREKQDLATRLQEQEKGFRHPSNSIIIEQPVSDPPGVAPRGSGGGAGSHRTPKVTGP
B3: Zinc finger protein 774 (Homo sapiens), Q6NX45 (parent)
chain: MWLGTSGKSGLPGHCLENPLQECHPAQLEEWALKGISRPSVISQPEQKEEPWVLPLQNFEARKIPRESHTDCEHQVAKLNQDNSETAEQCGTSSERTNKDLSHTLSWGGNWEQGLELEGQHGTLPGEGQLESFSQERDLNKLLDGYVGEKPMCAECGKSFNQSSYLIRHLRTHTGERPYTCIECGKGFKQSSDLVTHRRTHTGEKPYQCKGCEKKFSDSSTLIKHQRTHTGERPYECPECGKTFGRKPHLIMHQRTHTGEKPYACLECHKSFSRSSNFITHQRTHTGVKPYRCNDCGESFSQSSDLIKHQRTHTGERPFKCPECGKGFRDSSHFVAHMSTHSGERPFSCPDCHKSFSQSSHLVTHQRTHTGERPFKCENCGKGFADSSALIKHQRIHTGERPYKCGECGKSFNQSSHFITHQRIHLGDRPYRCPECGKTFNQRSHFLTHQRTHTGEKPFHCSKCNKSFRQKAHLLCHQNTHLI
partner: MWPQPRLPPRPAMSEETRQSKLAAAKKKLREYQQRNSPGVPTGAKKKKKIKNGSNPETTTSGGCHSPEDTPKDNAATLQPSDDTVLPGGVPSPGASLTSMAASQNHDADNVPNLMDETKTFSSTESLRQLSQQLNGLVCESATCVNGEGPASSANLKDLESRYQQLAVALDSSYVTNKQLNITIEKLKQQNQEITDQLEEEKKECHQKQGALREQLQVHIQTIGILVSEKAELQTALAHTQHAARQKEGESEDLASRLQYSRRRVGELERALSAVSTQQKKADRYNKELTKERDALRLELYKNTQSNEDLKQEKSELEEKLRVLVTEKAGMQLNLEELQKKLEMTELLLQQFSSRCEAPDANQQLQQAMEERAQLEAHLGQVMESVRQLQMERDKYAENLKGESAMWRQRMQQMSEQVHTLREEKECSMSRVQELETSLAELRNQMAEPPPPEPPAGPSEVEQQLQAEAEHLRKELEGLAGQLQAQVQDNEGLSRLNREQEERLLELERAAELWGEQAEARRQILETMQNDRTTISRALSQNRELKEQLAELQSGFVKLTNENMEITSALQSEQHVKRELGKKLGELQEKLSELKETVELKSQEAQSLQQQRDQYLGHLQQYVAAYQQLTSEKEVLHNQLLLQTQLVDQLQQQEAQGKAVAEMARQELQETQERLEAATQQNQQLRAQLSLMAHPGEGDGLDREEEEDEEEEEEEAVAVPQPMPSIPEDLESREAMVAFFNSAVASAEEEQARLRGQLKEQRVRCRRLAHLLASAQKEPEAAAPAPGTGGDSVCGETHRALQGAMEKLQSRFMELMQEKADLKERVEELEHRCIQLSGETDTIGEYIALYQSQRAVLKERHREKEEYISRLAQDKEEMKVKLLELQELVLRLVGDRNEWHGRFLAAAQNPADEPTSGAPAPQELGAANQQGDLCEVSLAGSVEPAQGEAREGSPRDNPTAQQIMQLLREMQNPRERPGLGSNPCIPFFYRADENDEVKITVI
B4: "Bile acid-CoA:amino acid N-acyltransferase" (Homo sapiens), Q14032 (parent)
chain: MIQLTATPVSALVDEPVHIRATGLIPFQMVSFQASLEDENGDMFYSQAHYRANEFGEVDLNHASSLGGDYMGVHPMGLFWSLKPEKLLTRLLKRDVMNRPFQVQVKLYDLELIVNNKVASAPKASLTLERWYVAPGVTRIKVREGRLRGALFLPPGEGLFPGVIDLFGGLGGLLEFRASLLASRGFASLALAYHNYEDLPRKPEVTDLEYFEEAANFLLRHPKVFGSGVGVVSVCQGVQIGLSMAIYLKQVTATVLINGTNFPFGIPQVYHGQIHQPLPHSAQLISTNALGLLELYRTFETTQVGASQYLFPIEEAQGQFLFIVGEGDKTINSKAHAEQAIGQLKRHGKNNWTLLSYPGAGHLIEPPYSPLCCASTTHDLRLHWGGEVIPHAAAQEHAWKEIQRFLRKHLIPDVTSQL
B5: Heterogeneous nuclear ribonucleoprotein R (Homo sapiens), O43390 (parent)
chain: MANQVNGNAVQLKEEEEPMDTSSVTHTEHYKTLIEAGLPQKVAERLDEIFQTGLVAYVDLDERAIDALREFNEEGALSVLQQFKESDLSHVQNKSAFLCGVMKTYRQREKQGSKVQESTKGPDEAKIKALLERTGYTLDVTTGQRKYGGPPPDSVYSGVQPGIGTEVFVGKIPRDLYEDELVPLFEKAGPIWDLRLMMDPLSGQNRGYAFITFCGKEAAQEAVKLCDSYEIRPGKHLGVCISVANNRLFVGSIPKNKTKENILEEFSKVTEGLVDVILYHQPDDKKKNRGFCFLEYEDHKSAAQARRRLMSGKVKVWGNVVTVEWADPVEEPDPEVMAKVKVLFVRNLATTVTEEILEKSFSEFGKLERVKKLKDYAFVHFEDRGAAVKAMDEMNGKEIEGEEIEIVLAKPPDKKRKERQAARQASRSTAYEDYYYHPPPRMPPPIRGRGRGGGRGGYGYPPDYYGYEDYYDDYYGYDYHDYRGGYEDPYYGYDDGYAVRGRGGGRGGRGAPPPPRGRGAPPPRGRAGYSQRGAPLGPPRGSRGGRGGPAQQQRGRGSRGSRGNRGGNVGGKRKADGYNQPDSKRRQTNNQQNWGSQPIAQQPLQQGGDYSGNYGYNNDNQEFYQDTYGQQWK
B6: Serine/threonine-protein kinase PAK 5 (Homo sapiens), Q9P286 (parent)
chain: MFGKKKKKIEISGPSNFEHRVHTGFDPQEQKFTGLPQQWHSLLADTANRPKPMVDPSCITPIQLAPMKTIVRGNKPCKETSINGLLEDFDNISVTRSNSLRKESPPTPDQGASSHGPGHAEENGFITFSQYSSESDTTADYTTEKYREKSLYGDDLDPYYRGSHAAKQNGHVMKMKHGEAYYSEVKPLKSDFARFSADYHSHLDSLSKPSEYSDLKWEYQRASSSSPLDYSFQFTPSRTAGTSGCSKESLAYSESEWGPSLDDYDRRPKSSYLNQTSPQPTMRQRSRSGSGLQEPMMPFGASAFKTHPQGHSYNSYTYPRLSEPTMCIPKVDYDRAQMVLSPPLSGSDTYPRGPAKLPQSQSKSGYSSSSHQYPSGYHKATLYHHPSLQSSSQYISTASYLSSLSLSSSTYPPPSWGSSSDQQPSRVSHEQFRAALQLVVSPGDPREYLANFIKIGEGSTGIVCIATEKHTGKQVAVKKMDLRKQQRRELLFNEVVIMRDYHHDNVVDMYSSYLVGDELWVVMEFLEGGALTDIVTHTRMNEEQIATVCLSVLRALSYLHNQGVIHRDIKSDSILLTSDGRIKLSDFGFCAQVSKEVPKRKSLVGTPYWMAPEVISRLPYGTEVDIWSLGIMVIEMIDGEPPYFNEPPLQAMRRIRDSLPPRVKDLHKVSSVLRGFLDLMLVREPSQRATAQELLGHPFLKLAGPPSCIVPLMRQYRHH
partner: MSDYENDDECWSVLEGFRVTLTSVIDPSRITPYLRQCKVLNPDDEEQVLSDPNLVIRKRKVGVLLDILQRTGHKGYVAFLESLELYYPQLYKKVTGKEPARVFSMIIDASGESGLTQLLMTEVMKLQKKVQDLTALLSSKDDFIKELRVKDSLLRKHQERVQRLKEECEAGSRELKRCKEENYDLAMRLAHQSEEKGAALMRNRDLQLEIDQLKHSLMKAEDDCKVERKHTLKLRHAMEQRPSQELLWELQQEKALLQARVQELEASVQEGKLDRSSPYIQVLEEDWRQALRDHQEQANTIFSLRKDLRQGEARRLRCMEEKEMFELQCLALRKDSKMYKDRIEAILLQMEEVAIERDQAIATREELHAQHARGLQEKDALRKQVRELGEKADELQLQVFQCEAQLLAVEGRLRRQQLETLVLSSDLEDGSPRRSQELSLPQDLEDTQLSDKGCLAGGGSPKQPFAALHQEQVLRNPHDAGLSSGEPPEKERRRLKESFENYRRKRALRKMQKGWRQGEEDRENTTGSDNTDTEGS
B7: Inhibitor of nuclear factor kappa-B kinase-interacting protein (Homo sapiens), Q70UQ0-4 (parent)
chain: MSEVKSRKKSGPKGAPAAEPGKRSEGGKTPVARSSGGGGWADPRTCLSLLSLGTCLGLAWFVFQQSEKFAKVENQYQLLKLETNEFQQLQSKISLISEKLESTESILQEATSSMSLMTQFEQEVSNLQDIMHDIQNNEEVLTQRMQSLNEKFQNITDFWKRSLEEMNINTDIFKSEAKHIHSQVTVQINSAEQEIKLLTERLKDLEDSTLRNIRTVKRQEEEDLLRVEEQLGSDTKAIEKLEEEQHALFARDEDLTNKLSDYEPKVEECKTHLPTIESAIHSVLRVSQDLIETEKKMEDLTMQMFNMEDDMLKAVSEIMEMQKTLEGIQYDNSILKMQNELDILKEKVHDFIAYSSTGEKGTLKEYNIENKGIGGDF
partner: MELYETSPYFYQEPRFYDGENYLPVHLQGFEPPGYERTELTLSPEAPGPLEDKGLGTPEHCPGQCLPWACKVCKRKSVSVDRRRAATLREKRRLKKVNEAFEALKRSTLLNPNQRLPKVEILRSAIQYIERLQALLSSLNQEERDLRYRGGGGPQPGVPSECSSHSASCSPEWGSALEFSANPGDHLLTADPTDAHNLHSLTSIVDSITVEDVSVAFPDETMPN
B8: Protein Dr1 (Homo sapiens), Q01658 (parent)
chain: MASSSGNDDDLTIPRAAINKMIKETLPNVRVANDARELVVNCCTEFIHLISSEANEICNKSEKKTISPEHVIQALESLGFGSYISEVKEVLQECKTVALKRRKASSRLENLGIPEEELLRQQQELFAKARQQQAELAQQEWLQMQQAAQQAQLAAASASASNQAGSSQDEEDDDDI
partner: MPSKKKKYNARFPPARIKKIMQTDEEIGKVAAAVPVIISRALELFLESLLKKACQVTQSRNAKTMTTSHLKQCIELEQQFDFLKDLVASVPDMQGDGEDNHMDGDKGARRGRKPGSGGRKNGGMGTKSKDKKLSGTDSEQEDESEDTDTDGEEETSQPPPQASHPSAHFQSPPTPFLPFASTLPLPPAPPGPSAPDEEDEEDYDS

Variants of B1 are the subject of one test. As to conditions: with kr412_human KRTAP4-12, Q9BQ66.
With G20S, the “effect of a mutation on the interaction” value is listed as “with no effect”.

Another test covers variants of B2. As to conditions: with smad3_human SMAD3, P84022.
Sequence of smad3_human SMAD3, P84022 (P84022 whole entry, looked up): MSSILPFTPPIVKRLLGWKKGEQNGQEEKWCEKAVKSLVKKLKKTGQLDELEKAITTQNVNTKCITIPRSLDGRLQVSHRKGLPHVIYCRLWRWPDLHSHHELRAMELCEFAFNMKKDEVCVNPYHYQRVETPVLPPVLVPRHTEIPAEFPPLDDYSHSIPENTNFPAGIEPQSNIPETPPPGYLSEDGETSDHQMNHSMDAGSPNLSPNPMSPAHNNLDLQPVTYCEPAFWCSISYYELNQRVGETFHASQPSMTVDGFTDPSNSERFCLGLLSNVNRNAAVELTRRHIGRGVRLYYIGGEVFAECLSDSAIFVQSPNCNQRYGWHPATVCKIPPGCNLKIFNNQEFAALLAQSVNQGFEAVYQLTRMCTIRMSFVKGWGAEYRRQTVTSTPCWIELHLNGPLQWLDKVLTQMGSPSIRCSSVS
With P203L, the “effect of a mutation on the interaction” value is on record as “disrupting interaction strength”.

Regarding G196R, the “effect of a mutation on the interaction” value was “with no effect”.

With R30L, the “effect of a mutation on the interaction” value is on record as “with no effect”.

With M25V, the “effect of a mutation on the interaction” value is on record as “with no effect”.

Variants of B2 are the subject of a further test. The note with it: with aakb2_human PRKAB2, O43741.
Sequence of aakb2_human PRKAB2, O43741 (O43741 whole entry): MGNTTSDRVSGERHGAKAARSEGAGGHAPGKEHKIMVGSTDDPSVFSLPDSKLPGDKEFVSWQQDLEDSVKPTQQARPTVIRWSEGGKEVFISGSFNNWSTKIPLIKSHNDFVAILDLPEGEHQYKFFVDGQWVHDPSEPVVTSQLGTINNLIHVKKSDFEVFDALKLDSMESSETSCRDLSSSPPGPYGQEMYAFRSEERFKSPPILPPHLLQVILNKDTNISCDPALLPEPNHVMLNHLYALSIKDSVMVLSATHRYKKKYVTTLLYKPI
For the variant P203L, the “effect of a mutation on the interaction” value is on record as “with no effect”.

With G196R, the “effect of a mutation on the interaction” value is on record as “with no effect”.

On to R30L, for which the “effect of a mutation on the interaction” value is “with no effect”.

Consider M25V, for which the “effect of a mutation on the interaction” value is “with no effect”.

In the next test the parent is B2. As to conditions: with blk_human BLK.
Regarding P203L, the “effect of a mutation on the interaction” value is listed as “with no effect”.

G196R: the “effect of a mutation on the interaction” value is given as “with no effect”.

As for R30L, the “effect of a mutation on the interaction” value is given as “with no effect”.

In the case of M25V, the “effect of a mutation on the interaction” value is listed as “with no effect”.

Variants of B2 are the subject of the next test. As to conditions: with ptk6_human PTK6, Q13882.
In the case of S73N, the “effect of a mutation on the interaction” value is “with no effect”.

In the next test the parent is B2. As to conditions: with bccip_human BCCIP.
As for S73N, the “effect of a mutation on the interaction” value was “with no effect”.

Variants of B3 are the subject of another test. As to conditions: with goga2_human GOLGA2, Q08379.
As for P65L, the “effect of a mutation on the interaction” value is recorded as “with no effect”.

The variants in another test derive from B4. The note with it: with fhl3_human FHL3, Q13643.
Sequence of fhl3_human FHL3, Q13643 (Q13643 whole entry): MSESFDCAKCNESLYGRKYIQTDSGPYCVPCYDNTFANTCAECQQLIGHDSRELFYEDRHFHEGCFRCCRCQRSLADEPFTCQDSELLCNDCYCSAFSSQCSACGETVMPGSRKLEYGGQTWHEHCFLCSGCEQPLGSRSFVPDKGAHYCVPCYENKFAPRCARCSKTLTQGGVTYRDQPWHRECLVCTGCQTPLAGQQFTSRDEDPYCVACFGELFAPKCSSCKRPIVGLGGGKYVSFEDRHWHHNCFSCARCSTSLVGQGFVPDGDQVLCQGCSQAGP
Regarding A182S, the “effect of a mutation on the interaction” value was “with no effect”.

The variants in a further test derive from B4. The note with it: with FBP1, P09467.
Sequence of FBP1, P09467 (P09467 whole entry): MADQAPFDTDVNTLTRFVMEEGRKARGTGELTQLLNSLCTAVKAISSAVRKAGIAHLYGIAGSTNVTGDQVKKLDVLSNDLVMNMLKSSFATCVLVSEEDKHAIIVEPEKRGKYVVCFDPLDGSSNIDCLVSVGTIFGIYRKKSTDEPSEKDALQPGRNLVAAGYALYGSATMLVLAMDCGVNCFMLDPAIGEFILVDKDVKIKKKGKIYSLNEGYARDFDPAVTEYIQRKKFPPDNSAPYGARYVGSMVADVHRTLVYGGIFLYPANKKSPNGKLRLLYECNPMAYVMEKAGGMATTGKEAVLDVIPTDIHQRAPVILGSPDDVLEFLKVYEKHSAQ
With R201P, the “effect of a mutation on the interaction” value is listed as “with no effect”.

With V304A, the “effect of a mutation on the interaction” value is recorded as “with no effect”.

In another test the parent is B5. The note with it: with anm1_human PRMT1, Q99873.
Sequence of anm1_human PRMT1, Q99873 (Q99873 whole entry, looked up): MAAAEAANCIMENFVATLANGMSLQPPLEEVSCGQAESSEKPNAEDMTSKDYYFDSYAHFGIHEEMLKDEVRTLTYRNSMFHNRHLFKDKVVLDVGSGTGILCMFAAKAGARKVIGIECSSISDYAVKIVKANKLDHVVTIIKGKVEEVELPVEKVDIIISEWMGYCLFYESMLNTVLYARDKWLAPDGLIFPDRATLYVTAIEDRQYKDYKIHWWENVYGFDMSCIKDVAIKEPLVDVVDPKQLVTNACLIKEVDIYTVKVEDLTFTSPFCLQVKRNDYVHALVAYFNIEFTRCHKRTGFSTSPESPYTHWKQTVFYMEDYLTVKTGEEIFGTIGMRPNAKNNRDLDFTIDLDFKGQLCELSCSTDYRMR
S530T: the “effect of a mutation on the interaction” value is listed as “with no effect”.

Another test covers variants of B6. As to conditions: with card9_human CARD9, Q9H257.
On to R335P, for which the “effect of a mutation on the interaction” value is “with no effect”.

The variants in a further test derive from B7. As to conditions: with myog_human MYOG.
As for V186G, the “effect of a mutation on the interaction” value was “with no effect”.

D157Y: the “effect of a mutation on the interaction” value is listed as “disrupting interaction strength”.

The variants in a further test derive from B8. The note with it: with nc2a_human DRAP1, Q14919.
Take E171D: the “effect of a mutation on the interaction” value is on record as “with no effect”.
